The target in test [1] is RBDSARS-CoV (SARS-CoV S protein residues 318-510, C-terminal His-tag) (SARS-CoV, UniProt P59594 318-510). Put plainly: ELISA. For orientation: ELISA stands for enzyme-linked immunosorbent assay.
In test [2] the target is RBDSARS-CoV-2 (SARS-CoV-2 S protein residues 319-539, C-terminal His-tag) (SARS-CoV-2, UniProt P0DTC2 319-539). The experiment in a line: ELISA.

Where a chain is given by its changes, count along the chain named. Some results are limits rather than exact numbers.

B1: 5p-93 (VHH)
VHH: QVQLVESGGGLVQPGGSLRLSCAASGFTFNRYAMSWVRQAPGKGREWVSGIYSDGSETYYTESVKGRFTISRDNAKNMLYLQMNSLKPEDTALYYCAKDENAHEDYFNSGFDRKYDYWGQGTQVTVSS
notes: class III psNb
The term IC50 denotes the concentration that inhibits the measured activity by half. Read a high IC50 as lower potency. As to B1, the IC50 was more than 8000 nM in test [1] and less than 10 nM in test [2].

B2: 5p-68 (VHH)
VHH: QVQLVESGGGLVQAGGSLRLSCVASGRTFSTSHMGWFRQAPGKEREFVAVISRSGSSTLDADSVKGRFTISRDNAKNTVYLQMNSLKPEDTAVYYCAGSRTAGLTSNRFLYDSWGQGTQVTVSS
For B2, the IC50 in test [1] was 10 to 100 nM; in test [2] it was less than 10 nM.

B3: 5p-3 (VHH)
VHH: QVQLVESGGGLVQAGDSLRLSCAASGRTISTFPMGWFRQAPGKEREFVATITRTGFGTYYSDSVKGRFTISRDNAKNTVFLQMNSLKPEDTALYYCAAAKTTDWVTRAPREMHEYAYWGQGTQVTVSS
Turning to B3, the IC50 was 10 to 100 nM in test [1] and less than 10 nM in test [2].

B4: 5p-98 (VHH)
VHH: QVQLVESGGGLVQPGGSLRLSCAASGRTLSNYAMGWFRQAPGKEREFVAVIRQRTGMRSYTYYADSVEGRFTISGDGAKMTVSLQMNSLKPEDTAVYYCAIDLIDDYKSTYYYSTQPSSYDYWGQGTQVTVSS
In the case of B4, the IC50 was 10 to 100 nM in test [1] and less than 10 nM in test [2].

B5: 5p-74 (VHH)
VHH: DVQLVESGGGLVQAGGSLRLSCAASGGTSRRYTMGWFRQAPGKEREFVSAISNTGATISGANSMEGRFTISRDNAKNTVYLQMNSLKPEDTAVYYCAATSRGWSIGMTYDYWGQGTQVTVSS
On to B5, for which the IC50 in test [1] and in test [2] was less than 10 nM in each case.

B6: 5p-58 (VHH)
VHH: HVQLVESGGGLVQAGESLRLLCVASGSIDSINAMGWFRQAPGKQRELVASISNMHTTMYAESVKGRFTISRDNFKNTADLQMNSLKPEDTAIYFCNLRQGCSYNGCDEYWGQGTQVTVSS
Take B6: the IC50 in test [1] was 1000 to 8000 nM; in test [2] it was less than 10 nM.

B7: 5p-167 (VHH)
VHH: B6 VHH with H1Q, E16G, F74A, G100R
Regarding B7, the IC50 in test [1] was more than 8000 nM; in test [2], less than 10 nM.

B8: 5p-165 (VHH)
VHH: B6 VHH with L21S, D29S, M54I, M58L, N73T, F74A, N83D, F94Y, G100D
B8: the IC50 was 10 to 100 nM in test [1] and less than 10 nM in test [2].

B9: 5p-82 (VHH)
VHH: HVQLVESGGGLVQAGESLRLSCVDSKRTGSRWPMGWFRQAPGKEREFVASISWTGSRTYYADSVKGRFTISRDNAENTVFLQMNSLKPEDTAVYYCAAAHARVYGANWSSSNRNDYDAWGQGTQVTVSS
On to B9, for which the IC50 in test [1] and in test [2] was 10 to 100 nM throughout.

B10: 5p-89 (VHH)
VHH: B9 VHH with H1E, E16G, V23E, M34V, Q82K, H100Q, A101T, N114D
For the molecule B10, the IC50 in test [1] and in test [2] was 10 to 100 nM in each case.

B11: 5p-13 (VHH)
VHH: HVQLVESGGGLVQPGGSLRLSCVASGLTFSRYTMAWFRQAPGKDRIFVAAVSKPGGSTYYADSVKGRFTISRDNAKNTVYLQMNSLKPDDTAVYSCAADLTVLLTANPAHYNYWGHGTQVTVSS
B11: the IC50 in test [1] and in test [2] was less than 10 nM throughout.

B12: 5p-40 (VHH)
VHH: B11 VHH with H1D, G16D, K76Q, D99G, H116Q
On to B12, for which the IC50 in test [1] and in test [2] was less than 10 nM each time.

B13: 5p-14 (VHH)
VHH: B11 VHH with H1Q, D44E, I46V, M83T, N84S, S85R, K87N, A109G, N112K, H116Q
With B13, the IC50 in test [1] and in test [2] was less than 10 nM in each case.

B14: 5p-162 (VHH)
VHH: DVQLVESGGGFVQAGGSLRLSCADSGLTRSVWPMGWFRQAPGKEREFVAGIAWSGERQSYADFVKGRFTVSRDNARNTVYLQMNSLKPEDTAVYYCAAPTSGVFGRTYAPTATSSYDSWGQGTQVTVSS
As for B14, the IC50 in test [1] and in test [2] was 10 to 100 nM in each case.

B15: 5p-64 (VHH)
VHH: QVQLVESGGGLVQAGGSLRLSCAASGRTFSTYAMAWFRQAPGKEREFVAGVARSADTTYYGDSVKGRFTISRDNAKNEVNLQMSSLKPEDTAVYYCAARSVIQYGIVPGNDFHYEYWGQGTQVTVSS
notes: class V psNb
As for B15, the IC50 in test [1] and in test [2] was less than 10 nM in each case.

B16: 5p-63 (VHH)
VHH: DVQLVESGGGLVQAGGSLRLSCAASGRSFSTYAMGWFRQAPGKEREFVAGVARSASTTYYTDSVKGRFTISRDNAKNEVYLQMNSLKPEDTAVYYCAARSVIQDTVVPGNPFHYEYWGQGTQVTVSS
For the molecule B16, the IC50 in test [1] and in test [2] was less than 10 nM throughout.

B17: 5p-175 (VHH)
VHH: B15 VHH with G105S
For B17, the IC50 in test [1] and in test [2] was less than 10 nM each time.

B18: 5p-61 (VHH)
VHH: QVQLVESGGGLVQAGGSLRLACAGSGGTFSSYIMAWFHQAPGKEREFIAGISKTGSDTYYADSVKGRFTISRDNAKNTVYLQMNSLKPEDTAVYYCAARRGPLITTSRLHYDFWGQGTQVTVSS
B18: the figures for the IC50 in test [1] and in test [2] were 10 to 100 nM and less than 10 nM, respectively.

B19: 5p-4 (VHH)
VHH: QVQLVESGGGLVQAGASLRLSCAASGRTFTNSHMGWFRQAPGKERDFVAVISRSGGSTLYADSVKGRFTISRDNAKNTVYLQMNTMKPEDTAVYYCAGARTAGLTSNPSLYDYWGQGTQVTVSS
As for B19, the IC50 in test [1] was 10 to 100 nM; in test [2], less than 10 nM.

B20: 5p-156 (VHH)
VHH: EVQLVESGGGLVQAGDSLRLSCVASGRTFTTSIMGWFRQAPGKEREFVAAIARNGVSTFYADSVKGRFTASRDNAKNTLYLQMNSLKPEDTGVYYCAAKPRGVGLTDRISDYDYWGQGTQVTVSS
For the molecule B20, the figures for the IC50 in test [1] and in test [2] were 10 to 100 nM and less than 10 nM, respectively.

B21: 5p-47 (VHH)
VHH: DVQLVESGGGLVQAGGSLRLSCAASGRTFTFNRFAMGWFRQAPEKEREFVAAISRTGRSTEYADSVKGRFAISRDNTKNTVYLQMNSLKPEDTAVYYCAALEAPLLHLIATQRRQYEYWGQGTQVTVSS
For the molecule B21, the IC50 in test [1] was 1000 to 8000 nM; in test [2], less than 10 nM.

B22: 4P-84 (VHH)
VHH: HVQLVESGGGLVQAGGSLRLSCAVSGRTVSTYGMGWFRQAPGKERDFVATITRSGGTTLYADSVKGRFTISRDNAKNTVYLQMNSLKIEDTAVYYCAVRRDSSFGYSRDSFEYDDWGQGTQVTVSS
On to B22, for which the 50% inhibitory concentration (IC50) in test [1] and in test [2] was less than 10 nM throughout.

B23: 5p-78 (VHH)
VHH: HVQLVESGGGLVQAGGSLRLSCAAAARFSTSAMGWFRQAPGKEREFVAAVSWSNTNIHYADTVKGRFTISADTAKETVYLQMNSLKPDDTAVYYCAQGGWGLTQPIIVDYWGKGTQVTVSS
Take B23: the IC50 in test [1] and in test [2] was less than 10 nM throughout.

B24: 5p-126 (VHH)
VHH: B23 VHH with H1Q, I57T, D88E
With B24, the IC50 in test [1] and in test [2] was less than 10 nM throughout.

B25: 5p-164 (VHH)
VHH: DVQLVESGGGLVKTGDSLRLSCAVSGGTFGSYGMAWFRQAPGKEREIVASIGRTGRTTDYADSVKGRFSIARDNAKNTVYLQMNNLKPEDTAVYYCAARIFSLNYALIGRDTNINYWGQGTQVTVSS
For B25, the 50% inhibitory concentration (IC50) was 10 to 100 nM in test [1] and less than 10 nM in test [2].

B26: 5p-125 (VHH)
VHH: HVQLVESGGGLVQAGDSLRLSCAASRIFSTSAMGWFRQAPGKEREFVAAISWSGTNTHYADPVKGRFAISTDNAKNTVYLQMNSLKPEDTAVYYCAQGGWGLRQPIEVDYWGKGTQVTVSS
B26: the IC50 in test [1] is 10 to 100 nM; in test [2], less than 10 nM.

B27: 5p-128 (VHH)
VHH: B26 VHH with D16G, E45Q, A49G, I50T, S51D, T57I, P62S, L102V, R103S
Regarding B27, the IC50 in test [1] was 10 to 100 nM; in test [2], less than 10 nM.

B28: 5p-127 (VHH)
VHH: B26 VHH with H1E, D16G, N56D, D61N, P62S, N73A, K86E, L102V, I106V
Turning to B28, the IC50 in test [1] and in test [2] was less than 10 nM in each case.

B29: 5p-99 (VHH)
VHH: HVQLVESGGGSVQPGGSLRLSCAASGLTLDHYAVGWFRQAPGKEREGVSCISSSTGSAYYADSVKGRFTISRDNAKNMMYLEMNSLKPEDTAVYYCATDLLRRMLPGSSWWCLNQNDFGSWGQGTQVTVSS
For the molecule B29, the figures for the IC50 in test [1] and in test [2] were 1000 to 8000 nM and less than 10 nM, respectively.

B30: 5p-168 (VHH)
VHH: DVQLVESGGGLVQAGASLRLSCVVSGVTFSTYGMAWFRQAPEKQRTFVATITREDTTFYADSVKGRFTISRDNAKNTVYLQMNSLKLEDTAVYYCAVRRDSSWGYSRDLFEYDDWGQGTQVTVSS
For the molecule B30, the IC50 in test [1] and in test [2] was less than 10 nM throughout.

(Values after patent US20250002563A1 (UNIVERSITY OF PITTSBURGH OF THE COMMONWEALTH SYSTEM OF …, published 2025).)
